In this experiment the target is Cdk2/cyclin A complex (Cdk2 phosphorylated at threonine 160 with truncated cyclin A) (human) (UniProt P24941).

Turning to “peptide corresponding to the Cdk binding domain of p27”, the IC50 of inhibition of Cdk2/cyclin A kinase activity (data not shown; 25% residual kinase activity even at peptide concentrations as high as 17 µM) amounted to 125 nM.

For the origin of these results see publication PMC3470550.
